The target of this assay is PcaLOOL12 (loosenin from Phanerochaete carnosa) produced in Pichia pastoris with a C-terminal His6-tag (Phanerochaete carnosa). Nature of the assay: SEC-SAXS.

In turn, “PcaLOOL12 (loosenin from Phanerochaete carnosa) produced in Pichia pastoris with a C-terminal His6-tag (natural protein)” gave a stoichiometry N of 2.

For the origin of these results see article PMC11869483.
